Data taken from patent US5227469A, “Platelet aggregation inhibitors from the leech” (Genentech, Inc., priority 1990, dated 1993).
Where two headings read alike, the source gives them in different places. No end group written: not given here.

Assays:
GP IIb IIIa [1] = target: T1, GP IIb IIIa (Homo sapiens, UniProt P05106+P08514); test: Fg/GP IIb IIIa solid phase ELISA (inhibition of GP IIb IIIa binding to immobilized fibrinogen); conditions: for activity in GP IIb IIIa /Fg ELISA compared with decorsin purified from whole leech homogenate: specific activity (IC50); for half maximal dilution / total units / specific activity (U/mg): Table III; for half maximal dilution: dilution giving half maximal response in ELISA, fractions from 310 g P. ornata; for total units: half maximal dilution multiplied by total volume in ml; for specific activity (U/mg): total units per mg total protein
T1 construct: GP IIb IIIa was purified from outdated human platelets as previously described; from tissue; host or cells: outdated human platelets
Method: The Fg/GP IIb IIIa ELISA was performed by a modification of the method of Nachman and Leung (Nachman, R. L. et al. (1982) J. Clin. Invest. 69, 263-269) according to the following protocol, with washes of phosphate buffered saline containing 0.01% Tween 20 between each step:
Microtiter plates were coated with purified human fibrinogen (10 μg/ml), washed, and then blocked with TACTS, 0.5% BSA. The plates were washed and samples to be evaluated were added, followed immediately by addition of purified GP IIb IIIa (40 μg/ml) in TACTS, 0.5% BSA (Calbiochem). After a 1 hr incubation, the plate was washed and AP3 (1 μg/ml) was added.
Following a 1 hr incubation and another wash, goat anti-mouse IgG conjugated to horseradish peroxidase was added. A final wash was performed, and developing reagent buffer (0.66 mg/ml o-phenylenediamine dihydrochloride, 0.012% H2 O2, 22 mM citrate, 50 mM phosphate, pH 5.0) added; plates were incubated until color developed.
The reaction was stopped with 1N H2 SO4 and the absorbance at 492 nm measured. A four parameter fit (Marquardt, D. W. (1963) J. Soc. Indust. Appl. Math 11, 431-441) was used to estimate the half maximal inhibition concentration.

[2] = system: human platelet rich plasma (PRP)
Method: The Fg/GP IIb IIIa ELISA was performed as previously described (Dennis, M. S., Henzel, W. J., Pitti, R. M., Lipari, M. T., Napier, M. A., Deisher, T. A., Bunting S. and Lazarus, R. A. (1990) Proc. Natl. Acad. Sci. USA, 87, 2471-2475; and Seymour, J. L., Henzel, W. J., Nevins, B., Stults, J. T., and Lazarus, R. A. (1990) J. Biol. Chem. 265, 10143-10147).Platelet aggregation assays were carried out in human platelet rich plasma (PRP) as reported earlier (Dennis, M. S., Henzel, W. J., Pitti, R. M., Lipari, M. T., Napier, M. A., Deisher, T. A., Bunting, S. and Lazarus, R. A. (1990) Proc. Natl. Acad. Sci. USA, 87, 2471-2475; and Seymour, J. L., Henzel, W. J., nevins, B., Stults, J. T., and Lazarus, R. A. (1990) J. Biol. Chem. 265, 10143-10147).
Platelet aggregation assays were performed in PRP as follows:
50 ml whole human blood (9 parts) was drawn on 3.8% Na citrate (1 part) from a donor who had not taken any aspirin or related medication for at least two weeks. Blood was centrifuged at 160×g for 10 minutes at 22° C., allowed to stand for five minutes, and the PRP was decanted. Platelet poor plasma (PPP) was prepared from the remaining blood by centrifugation at 2000×g for 25 minutes at 22° C. PRP platelet count was measured on a Baker 9000 hematology analyzer and diluted to about 300,000 platelets/μL using PPP.
Light transmittance was recorded after the addition of ADP (8 μM), which initiated platelet aggregation. The inhibition of platelet aggregation was measured at the maximum aggregation response.

GP IIb IIIa [3] = target: T1, GP IIb IIIa; test: Binding to immobilized GP IIb IIIa affinity resin, elution with EDTA; conditions: eluted by EDTA
Method: Immediately before coupling, approximately 10 ml Affi-Prep 10 resin was washed with 300 ml ice cold 50 mM sodium acetate, pH 4.5 in a coarse sintered glass funnel. After removing excess buffer, approximately 4 ml washed resin was transferred to a 15 ml conical tube containing 8 mg purified GP IIb IIIa which had been previously dialyzed into 0.1M sodium bicarbonate, 2 mM CaCl2, pH 8.0.
The coupling was carried out on a rocking platform at room temperature for 2 hours, and then overnight at 4° C. Excess reactive groups on the resin were blocked by incubation with 0.1M ethanolamine, 2 mM CaCl2, pH 9.0 for 1 hour at room temperature. The resin was then transferred to a sintered glass funnel, and washed in an alternating fashion with 20 ml aliquots of 0.1M sodium acetate, pH 4.5, and 0.1M Tris, pH 7.5, each containing 0.5M NaCl and 2 mM CaCl2, to remove any non-covalently bound material. A total of approximately 300 ml of each buffer was used in this cycle washing. Finally, the coupled GP IIb IIIa resin was washed with 100 ml 50 mM Tris, pH 7.5 containing 2 mM CaCl2 and stored at 4° C. prior to use.
The affinity column (ca. 4 ml of resin) was equilibrated in 50 mM Tris, pH 7.5 containing 2 mM CaCl2. The neutralized TFA pool was loaded onto the column at a flow rate of 0.5 ml/min and 25 ml fractions were collected. […]

[4] = target: glycoprotein IIb IIIa (GP IIb IIIa), purified from outdated human platelets (human) (UniProt P08514); test: GP IIb IIIa/Fg ELISA, IC50 against the reference GRGDV
[5] = target: glycoprotein IIb IIIa (GP IIb IIIa), purified from outdated human platelets (human) (UniProt P08514); test: Fg/GP IIb IIIa solid phase ELISA, inhibition of GP IIb IIIa binding to immobilized fibrinogen
[6] = target: GP IIb IIIa on human platelets (platelet rich plasma) (human) (UniProt P08514)
[7] = target: glycoprotein IIb IIIa (GP IIb IIIa), purified from outdated human platelets (human) (UniProt P08514); test: Fg/GP IIb-IIIa solid phase ELISA
[8] = target: glycoprotein IIb IIIa (GP IIb IIIa), purified from outdated human platelets (human) (UniProt P08514); test: Fg/GP IIb IIIa ELISA units per mg protein
[9] = target: glycoprotein IIb IIIa (GP IIb IIIa), purified from outdated human platelets (human) (UniProt P08514); test: Fg/GP IIb IIIa ELISA, dilution of the 0.018 mg/ml fraction giving a half maximal response
[10] = target: glycoprotein IIb IIIa (GP IIb IIIa), purified from outdated human platelets (human) (UniProt P08514); test: Fg/GP IIb IIIa ELISA, dilution of the 0.024 mg/ml fraction giving a half maximal response
[11] = target: glycoprotein IIb IIIa (GP IIb IIIa), purified from outdated human platelets (human) (UniProt P08514); test: Fg/GP IIb IIIa ELISA, dilution of the 0.113 mg/ml fraction giving a half maximal response
[12] = target: glycoprotein IIb IIIa (GP IIb IIIa), purified from outdated human platelets (human) (UniProt P08514); test: Fg/GP IIb IIIa ELISA, dilution of the 0.020 mg/ml fraction giving a half maximal response
[13] = target: glycoprotein IIb IIIa (GP IIb IIIa), purified from outdated human platelets (human) (UniProt P08514); test: Fg/GP IIb IIIa ELISA, dilution of the 0.085 mg/ml fraction giving a half maximal response
[14] = target: T2, GP IIb IIIa on human platelets (platelet rich plasma) (human, UniProt P08514); test: cell-based or functional assay
[15] = target: T2, GP IIb IIIa on human platelets …; test: cell-based or functional assay; remark: listed apart in the source
[16] = four parameter fit, read-out: IC50 in GP IIb IIIa /Fg ELISA
[17] = Table VI, n in parenthesis, read-out: IC50 (nM) Fg/GP IIb-IIIa solid phase ELISA

APRLPQCQGDDQEKCLCNKDECPPGQCRFPRGDADPYCE [decorsin, 39-amino acid RGD protein from the leech Macrobdella decora, GP IIb IIIa antagonist]
IC50 (GP IIb IIIa [1]; [16]): ~1.5 nM | potency relative to pentapeptide GRGDV in GP IIb IIIa /Fg ELISA (GP IIb IIIa [1]; ratio of IC50 values): about 27 times | activity in GP IIb IIIa /Fg ELISA compared with decorsin purified from whole leech homogenate (GP IIb IIIa [1]): identical | activity in GP IIb IIIa /Fg ELISA compared with decorsin purified from whole leech homogenate (GP IIb IIIa [1]; listed as synthetic native decorsin): essentially identical | activity in platelet aggregation assay compared with native decorsin [2]: essentially identical | binding to GP IIb IIIa receptor (words) (GP IIb IIIa [3]): bound | binding to GP IIb IIIa receptor (words) (GP IIb IIIa [3]; listed as Decorsin): bind

GRGDV [GRGDV, reference compound] [listing 1 of 2 here]
IC50 (GP IIb IIIa [1]; [17]): 47.5 ± 6.4 nM | IC50 (GP IIb IIIa [1]; [16]): ~40 nM

GRGDV [GRGDV, reference compound] [listing 2 of 2 here]
IC50 ([2]; read-out: IC50 in platelet aggregation assay, ADP (8 μM) induced, human PRP): ~75000 nM

IPQCRDVKESGQPNDKCRCNGKPCTVGKCTIARGDDNDKCT [ornatin A2, ornatin isoform isolated from P. ornata]
activity of C18 rp HPLC peaks in Fg/GP IIb IIIa ELISA (GP IIb IIIa [1]; FIG. 8 inset, rechromatography of ornatin A): active | half maximal dilution (GP IIb IIIa [1]): 809 | total units (GP IIb IIIa [1]): 405 | specific activity (U/mg) (GP IIb IIIa [1]): 44505 U/mg | IC50 (GP IIb IIIa [1]; [17]): 5.1 nM

IYVRPTKDELLYCGEFRELGQPDKKCRC [ornatin D, ornatin isoform from P. ornata]
half maximal dilution (GP IIb IIIa [1]): 1032 | total units (GP IIb IIIa [1]): 516 | specific activity (U/mg) (GP IIb IIIa [1]): 49615 U/mg | IC50 (GP IIb IIIa [1]; [17]): 3.2 ± 0.35 nM

IYVRPTKDELLYCGEFRELGQPDKKCRCDGKPCTVGRCKFARGDADDKCTSA [ornatin C, ornatin isoform isolated from P. ornata]
half maximal dilution (GP IIb IIIa [1]): 4422 | total units (GP IIb IIIa [1]): 2211 | specific activity (U/mg) (GP IIb IIIa [1]): 39060 U/mg | IC50 (GP IIb IIIa [1]; [17]): 4.9 ± 0.5 nM

IYVRPTKDELLYCGEFRELGQPDKKCRCDGKPCTVGRCNFARGDNDDKCI [ornatin E, ornatin isoform isolated from P. ornata]
half maximal dilution (GP IIb IIIa [1]): 3610 | total units (GP IIb IIIa [1]): 1805 | specific activity (U/mg) (GP IIb IIIa [1]): 42370 U/mg | IC50 (GP IIb IIIa [1]; [17]): 4.5 ± 0.77 nM

IYVRPTNDELNYCGDFRELGQPDKKCRCDGKPCTVGRCKFARGDNDDKCISA [ornatin B, ornatin isoform isolated from P. ornata]
half maximal dilution (GP IIb IIIa [1]): 1215 | total units (GP IIb IIIa [1]): 608 | specific activity (U/mg) (GP IIb IIIa [1]): 50670 U/mg | IC50 (GP IIb IIIa [1]; [17]): 3.5 ± 0.25 nM

N-3 decorsin: isoform which lacks the first three amino terminal residues of decorsin (LPQCQGDDQEKCLCNKDECPPGQCRFPRGDADPYCE)
IC50 (GP IIb IIIa [1]; [16]): ~1.5 nM | activity in platelet aggregation assay compared with native decorsin [2]: Comparable activities

decorsin
times more potent than GRGDV [4]: 27 fold | IC50 [5]: 1.5 nM

kistrin (from UniProt P30403)
IC50 (nM), human platelet aggregation assay (ADP activation) [6]: 137 nM | IC50 [7]: 4.6 nM

kistrin [reference compound]
IC50 (GP IIb IIIa [1]; [17]): 4.6 ± 0.06 nM | IC50 ([2]; read-out: IC50 (nM) human platelet aggregation assay, Table VI, ADP activation, n in parenthesis): 137 nM

ornatin A2
IC50 [7]: 5.1 nM | specific activity (U/mg) [8]: 44500 U/mg | half maximal dilution [9]: 809

ornatin B
IC50 [7]: 3.5 nM | specific activity (U/mg) [8]: 50700 U/mg | half maximal dilution [10]: 1220

ornatin C
IC50 [7]: 4.9 nM | specific activity (U/mg) [8]: 39100 U/mg | half maximal dilution [11]: 4420

ornatin D
IC50 [7]: 3.2 nM | specific activity (U/mg) [8]: 49600 U/mg | half maximal dilution [12]: 1030

ornatin E
IC50 [7]: 4.5 nM | specific activity (U/mg) [8]: 42400 U/mg | half maximal dilution [13]: 3610

IYVRPTKDELLYCGEFRELGQPDKKCRCDGKPCTVGRCNFARGDNDDKCI (other) [ornatin E]
IC50 (nM), human platelet aggregation assay (ADP activation) [14]: 516 nM

B1: ornatin C (other)
chain: IYVRPTKDELLYCGEFRELGQPDKKCRCDGKPCTVGRCKFARGDADDKCTSA
IC50 (nM), human platelet aggregation assay (ADP activation) [14]: 324 nM

GRGDV
IC50, inhibition of ADP-induced platelet aggregation in human platelet rich plasma [15]: ~75000 nM | IC50 [7]: 47.5 nM | IC50 [5]: 40 nM

APRLPQCQGDDQEKCLCNKDECPPGQCRFPRGDADPYCE (other) [decorsin]
IC50, inhibition of ADP-induced platelet aggregation in human platelet rich plasma [15]: ~300 nM | IC50 (nM), human platelet aggregation assay (ADP activation) [14]: 314 nM
